Results: publication PMC8528422 (Science Advances, 2021)

B1: FleN, full length (residues 1 to 280), wild type (natural protein, Pseudomonas aeruginosa, UniProt G3XD64 1-280, looked up)
chain: MKQMGSMHPVQVIAVTGGKGGVGKTNVSVNLALALADLGRRVMLLDADLGLANVDVLLGLTPKRTLADVIEGRCELRDVLLLGPGGVRIVPAASGTQSMVHLSPMQHAGLIQAFSDISDNLDVLVVDTAAGIGDSVVSFVRAAQEVLLVVCDEPTSITDAYALIKLLNRDHGMTRFRVLANMAHSPQEGRNLFAKLTKVTDRFLDVALQYVGVIPYDESVRKAVQKQRAVYEAFPRSKASLAFKAVAQKVDSWPLPANPRGHLEFFVERLVQHPATGSAV

Assays:
crystal structure = molecular target: the molecule itself; experiment: crystal structure
[1] = molecular target: FleQ, full length (FleQFL) (Pseudomonas aeruginosa, UniProt G3XCV0 1-490, biotin (EZ-Link NHS-PEG4-Biotin) for the BLI assay); experiment: BLI
Chain of FleQ, full length (FleQFL) (G3XCV0 whole entry): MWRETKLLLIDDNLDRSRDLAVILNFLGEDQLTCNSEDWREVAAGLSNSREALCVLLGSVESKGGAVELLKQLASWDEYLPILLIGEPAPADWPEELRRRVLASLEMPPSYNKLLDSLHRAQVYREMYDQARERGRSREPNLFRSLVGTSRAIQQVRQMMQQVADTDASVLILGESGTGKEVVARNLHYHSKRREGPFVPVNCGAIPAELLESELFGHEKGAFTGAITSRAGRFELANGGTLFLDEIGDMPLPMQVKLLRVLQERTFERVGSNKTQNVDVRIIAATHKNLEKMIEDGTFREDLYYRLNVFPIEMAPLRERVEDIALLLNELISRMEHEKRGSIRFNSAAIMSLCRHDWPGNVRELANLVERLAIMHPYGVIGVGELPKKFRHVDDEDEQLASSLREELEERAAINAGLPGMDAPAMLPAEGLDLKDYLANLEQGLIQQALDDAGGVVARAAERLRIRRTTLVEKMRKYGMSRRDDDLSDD

[2] = molecular target: B1; experiment: BLI
cross-linking = molecular target: the molecule itself; experiment: cross-linking

## B1
Crystal structure
  stoichiometry N: 2
[1]
  Kd: 340 nM

B2: FleQ AAA+ ATPase (central) domain, residues 142 to 395 (domain or fragment)
chain: not shown
modifications: biotin (EZ-Link NHS-PEG4-Biotin) for the BLI assay
[2]
  Kd: 260 nM

B3: FleN L263W (natural protein, Pseudomonas aeruginosa, UniProt G3XD64 1-280, looked up)
chain: MKQMGSMHPVQVIAVTGGKGGVGKTNVSVNLALALADLGRRVMLLDADLGLANVDVLLGLTPKRTLADVIEGRCELRDVLLLGPGGVRIVPAASGTQSMVHLSPMQHAGLIQAFSDISDNLDVLVVDTAAGIGDSVVSFVRAAQEVLLVVCDEPTSITDAYALIKLLNRDHGMTRFRVLANMAHSPQEGRNLFAKLTKVTDRFLDVALQYVGVIPYDESVRKAVQKQRAVYEAFPRSKASLAFKAVAQKVDSWPLPANPRGHWEFFVERLVQHPATGSAV
cross-linking
  stoichiometry N: 2
[1]
  fold change of KD against WT FleN: 100 fold

B4: FleN D48A (natural protein, Pseudomonas aeruginosa, UniProt G3XD64 1-280, looked up)
chain: MKQMGSMHPVQVIAVTGGKGGVGKTNVSVNLALALADLGRRVMLLDAALGLANVDVLLGLTPKRTLADVIEGRCELRDVLLLGPGGVRIVPAASGTQSMVHLSPMQHAGLIQAFSDISDNLDVLVVDTAAGIGDSVVSFVRAAQEVLLVVCDEPTSITDAYALIKLLNRDHGMTRFRVLANMAHSPQEGRNLFAKLTKVTDRFLDVALQYVGVIPYDESVRKAVQKQRAVYEAFPRSKASLAFKAVAQKVDSWPLPANPRGHLEFFVERLVQHPATGSAV
[1]
  binding result: binds

B5: FleN truncated by 25 amino acids at the C terminus, residues 1 to 255 (domain or fragment, Pseudomonas aeruginosa, UniProt G3XD64 1-255, looked up)
chain: MKQMGSMHPVQVIAVTGGKGGVGKTNVSVNLALALADLGRRVMLLDADLGLANVDVLLGLTPKRTLADVIEGRCELRDVLLLGPGGVRIVPAASGTQSMVHLSPMQHAGLIQAFSDISDNLDVLVVDTAAGIGDSVVSFVRAAQEVLLVVCDEPTSITDAYALIKLLNRDHGMTRFRVLANMAHSPQEGRNLFAKLTKVTDRFLDVALQYVGVIPYDESVRKAVQKQRAVYEAFPRSKASLAFKAVAQKVDSWPL
cross-linking
  stoichiometry N: 2
